# Patent publication US20120220015
# Experiments:
# α2-antiplasmin, P08697 = biological target: T1, α2-antiplasmin, P08697
# T1 chain: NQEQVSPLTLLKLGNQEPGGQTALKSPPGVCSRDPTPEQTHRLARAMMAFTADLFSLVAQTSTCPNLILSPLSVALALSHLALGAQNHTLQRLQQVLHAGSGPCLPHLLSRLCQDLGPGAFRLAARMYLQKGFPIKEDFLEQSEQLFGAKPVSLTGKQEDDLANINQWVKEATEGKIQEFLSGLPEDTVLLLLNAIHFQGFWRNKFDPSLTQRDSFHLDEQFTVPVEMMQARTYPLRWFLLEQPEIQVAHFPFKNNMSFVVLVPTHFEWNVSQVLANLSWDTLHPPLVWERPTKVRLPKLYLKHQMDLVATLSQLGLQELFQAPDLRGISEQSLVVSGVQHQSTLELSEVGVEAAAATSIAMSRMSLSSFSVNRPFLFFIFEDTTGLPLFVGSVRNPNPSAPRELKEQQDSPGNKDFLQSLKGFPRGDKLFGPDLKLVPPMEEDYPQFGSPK
# [1] = biological target: T2, fibrin (clot formed from purified fibrinogen with α-thrombin), P02671
# T2 chain 1: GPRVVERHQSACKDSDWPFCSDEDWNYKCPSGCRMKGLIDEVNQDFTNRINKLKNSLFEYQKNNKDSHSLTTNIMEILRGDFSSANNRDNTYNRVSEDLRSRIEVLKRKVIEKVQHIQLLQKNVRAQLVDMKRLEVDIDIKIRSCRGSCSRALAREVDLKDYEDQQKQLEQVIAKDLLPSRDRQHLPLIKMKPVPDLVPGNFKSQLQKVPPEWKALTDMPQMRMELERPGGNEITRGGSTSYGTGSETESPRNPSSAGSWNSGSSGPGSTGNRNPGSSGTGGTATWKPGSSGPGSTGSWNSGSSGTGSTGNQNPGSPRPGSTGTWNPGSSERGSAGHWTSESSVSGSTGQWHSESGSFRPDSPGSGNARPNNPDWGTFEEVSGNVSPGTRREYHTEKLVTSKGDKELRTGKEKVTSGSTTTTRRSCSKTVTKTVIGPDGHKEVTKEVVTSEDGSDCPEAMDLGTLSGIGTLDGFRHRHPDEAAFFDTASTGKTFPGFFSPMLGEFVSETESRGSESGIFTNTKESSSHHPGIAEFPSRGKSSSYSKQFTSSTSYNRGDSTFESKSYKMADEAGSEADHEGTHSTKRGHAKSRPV
# T2 chain 2: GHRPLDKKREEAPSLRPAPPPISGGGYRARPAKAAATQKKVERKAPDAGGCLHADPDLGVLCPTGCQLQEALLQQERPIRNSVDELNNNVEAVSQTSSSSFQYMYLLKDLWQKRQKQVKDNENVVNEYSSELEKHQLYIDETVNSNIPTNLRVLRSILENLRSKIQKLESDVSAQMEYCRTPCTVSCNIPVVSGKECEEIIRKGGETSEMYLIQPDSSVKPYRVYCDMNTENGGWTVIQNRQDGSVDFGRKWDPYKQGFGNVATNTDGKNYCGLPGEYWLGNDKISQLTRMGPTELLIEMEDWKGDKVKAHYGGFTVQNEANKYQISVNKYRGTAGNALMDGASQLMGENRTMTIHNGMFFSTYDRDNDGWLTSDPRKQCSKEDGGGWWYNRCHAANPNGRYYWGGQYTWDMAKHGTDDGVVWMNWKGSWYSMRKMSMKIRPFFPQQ
# T2 chain 3: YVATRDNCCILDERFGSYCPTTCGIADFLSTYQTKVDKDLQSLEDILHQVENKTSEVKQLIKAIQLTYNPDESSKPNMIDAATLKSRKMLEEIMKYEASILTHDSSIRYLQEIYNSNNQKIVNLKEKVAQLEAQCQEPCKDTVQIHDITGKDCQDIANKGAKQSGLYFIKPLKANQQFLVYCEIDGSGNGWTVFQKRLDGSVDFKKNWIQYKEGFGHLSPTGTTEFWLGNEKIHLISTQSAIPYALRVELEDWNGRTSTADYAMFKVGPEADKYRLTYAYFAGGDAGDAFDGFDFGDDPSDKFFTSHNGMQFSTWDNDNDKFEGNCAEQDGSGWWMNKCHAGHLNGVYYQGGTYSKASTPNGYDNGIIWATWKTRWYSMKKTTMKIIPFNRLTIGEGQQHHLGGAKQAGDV
Protein,"plasmin activity (S-2403 hydrolysis at 405 nm) after 30 minutes pre-incubation with α2-AP, plasmin:α2-AP molar ratio of 1:1 (α2-antiplasmin, P08697)","fibrin clot lysis (decrease of turbidity at 340 nm), plasmin at 500, 250, 125 and 62 nM [1]"
Lemna-derived plasmin from transgenic line BAP12-B2-150 (aglycosylated plasmin derived from mature human plasminogen with the N289D substitution) (protein) chain 1: KVYLSECKTGNGKNYRGTMSKTKNGITCQKWSSTSPHRPRFSPATHPSEGLEENYCRNPDNDPQGPWCYTTDPEKRYDYCDILECEEECMHCSGENYDGKISKTMSGLECQAWDSQSPHAHGYIPSKFPNKNLKKNYCRNPDRELRPWCFTTDPNKRWELCDIPRCTTPPPSSGPTYQCLKGTGENYRGNVAVTVSGHTCQHWSAQTPHTHDRTPENFPCKNLDENYCRNPDGKRAPWCHTTNSQVRWEYCKIPSCDSSPVSTEQLAPTAPPELTPVVQDCYHGDGQSYRGTSSTTTTGKKCQSWSSMTPHRHQKTPENYPNAGLTMNYCRNPDADKGPWCFTTDPSVRWEYCNLKKCSGTEASVVAPPPVVLLPDVETPSEEDCMFGNGKGYRGKRATTVTGTPCQDWAAQEPHRHSIFTPETNPRAGLEKNYCRNPDGDVGGPWCYTTNPRKLYDYCDVPQCAAPSFDCGKPQVEPKKCPGR chain 2: VVGGCVAHPHSWPWQVSLRTRFGMHFCGGTLISPEWVLTAAHCLEKSPRPSSYKVILGAHQEVNLEPHVQEIEVSRLFLEPTRKDIALLKLSSPAVITDKVIPACLPSPNYVVADRTECFVTGWGETQGTFGAGLLKEAQLPVIENKVCNRYEFLNGRVQSTELCAGHLAGGTDSCQGDSGGPLVCFEKDKYILQGVTSWGLGCARPNKPGVYVRVSRFVTWIEGVMRNN,"no plasmin activity was detected for human, BAP12-B2-150, or BAP01-B1-230 plasmin, indicating that the inhibition was complete",There was no evidence of a difference between fibrinolysis induced by plasmin derived from BAP01-B2-230 and BAP12-B2-150; their respective lysis profiles were very similar for all four plasmin concentrations
Lemna-derived plasmin from transgenic line BAP01-B2-230 (derived from mature human plasminogen with the N-linked glycosylation site Asn-289) (protein) chain 1: KVYLSECKTGNGKNYRGTMSKTKNGITCQKWSSTSPHRPRFSPATHPSEGLEENYCRNPDNDPQGPWCYTTDPEKRYDYCDILECEEECMHCSGENYDGKISKTMSGLECQAWDSQSPHAHGYIPSKFPNKNLKKNYCRNPDRELRPWCFTTDPNKRWELCDIPRCTTPPPSSGPTYQCLKGTGENYRGNVAVTVSGHTCQHWSAQTPHTHNRTPENFPCKNLDENYCRNPDGKRAPWCHTTNSQVRWEYCKIPSCDSSPVSTEQLAPTAPPELTPVVQDCYHGDGQSYRGTSSTTTTGKKCQSWSSMTPHRHQKTPENYPNAGLTMNYCRNPDADKGPWCFTTDPSVRWEYCNLKKCSGTEASVVAPPPVVLLPDVETPSEEDCMFGNGKGYRGKRATTVTGTPCQDWAAQEPHRHSIFTPETNPRAGLEKNYCRNPDGDVGGPWCYTTNPRKLYDYCDVPQCAAPSFDCGKPQVEPKKCPGR chain 2: VVGGCVAHPHSWPWQVSLRTRFGMHFCGGTLISPEWVLTAAHCLEKSPRPSSYKVILGAHQEVNLEPHVQEIEVSRLFLEPTRKDIALLKLSSPAVITDKVIPACLPSPNYVVADRTECFVTGWGETQGTFGAGLLKEAQLPVIENKVCNRYEFLNGRVQSTELCAGHLAGGTDSCQGDSGGPLVCFEKDKYILQGVTSWGLGCARPNKPGVYVRVSRFVTWIEGVMRNN,"no plasmin activity was detected for human, BAP12-B2-150, or BAP01-B1-230 plasmin, indicating that the inhibition was complete",There was no evidence of a difference between fibrinolysis induced by plasmin derived from BAP01-B2-230 and BAP12-B2-150; their respective lysis profiles were very similar for all four plasmin concentrations
